Residue numbers refer to the chain shown, from its start. “And” between values parts separate entries of the source, which are not always exact repeats. Equal entries are not always repeated.
B1: anti-TMEM106B antibody TM-23 (antibody, V domains shown)
VH: QVQLQQSGAELIRPGTSVKVSCKASGYAFTNYLIEWVKKRPGQGLEWIGVINPGSGITNYNEKFKGKATLTADKSSSTAYMQLSSLTSEDSAVYFCARSDFITTVVADYWGQGTTVTVSS
VL: DIVVTQTPLSLPVSFGDQVSISCRSSQSLTNYYGNTYLSWYLHKPGQSPQLLIYGISNRFSGVPDRFSGSGSGTDFTLKISTIKPEDLGMYYCLQGTHQPRTFGGGTKLEIK
B2: anti-TMEM106B antibody TM-26 (antibody, V domains shown)
VH: B1 VH
VL: B1 VL
B3: anti-TMEM106B antibody TM-13 (antibody, V domains shown)
VH: QVQLQQSGAELVKPGASVKMSCKASGYTFTTFPIEWMKQSHGKGLEWIGNFHPYNDDTKYNEKFKGKATLTVDKSSSTVYLDLSRLTSDDSAVYYCARYFYGGMDYWGQGTSVTVSS
VL: DIQMTQSPASLSVSVGETVTITCRASENIYSSLGWYQQKQGESPQLLVFAATNLADGVPSRFSGSGSGTQYSLKINSLQSEDFGTYYCQHLWSIPWTFGGGTRLEIK
B4: anti-TMEM106B antibody TM-27 (antibody, V domains shown)
VH: QVQLQQSGAELVRPGTSVKVSCKASGYALTNYLIEWVKQRPGQGLEWIGVINPGSGSTKYNEKFKGKATLTADKSSSTAYMQLSSLTSEDSAVYFCARIIYDHDWYFDVWGTGTTVTVSS
VL: QIVLTQSPAIMSASPGEKVTISCSASSSISYMYWYQQKPGSSPKPWIYRTSTLASGVPARFSGSGSGTSYSLTISSMEAEDAATYYCQQYHSYPRTFGGGTKLEIK
B5: anti-TMEM106B antibody TM-25 (antibody, V domains shown)
VH: EVQLVESGGDLVKPGGSLRLSCAASGFTFSGYGMSWIRQTPDKRLEWVATISSGGRYTVYPDSVKGRFTMSRDNVKNTLYLQMSSLKSEDTALYYCARDNFYSYAMDYWGLGTSVTVSA
VL: DIVMTQAAFSNPVTLGTSASISCRSSKSLLHSNGITYLFWYLQKPGQSPQLLIYQMSNLASGVPDRFSSSGSGTDFTLRISRVEAEDVGVYYCAQNLELWTFGGGTKLEIK
B6: anti-TMEM106B antibody TM-28 (antibody, V domains shown)
VH: EVQLQQSGPVLVKPGPSVKISCMASVFTFNDYYIHWVKQSHGKSLEWIGLVYPYNGGTNYNQNFKGKATLTVDTSSRTAYMELNSLTSEDSAVYYCARSYFSNPIGYWGQGTLVTVSE
VL: DIVMTQSPSSLSVSVGEKVTVSCKSSQSLLNSGNQKNYLAWYQQKPGQPPKLLIYGASTRESGVPDRFTGSGSGTDFTLTISSVQAEDLAVYYCQNDHSYPLTFGAGTKLELK
B7: anti-TMEM106B antibody TM-29 (antibody, V domains shown)
VH: QVQLRQSGAELVRPGASVKLSCKASGYTFTDYYINWVKQRPGQGLEWIARIYPGSGYTYYNEKFKGKATLTAEGSSNTAYMQLSSLTSEDSAVYFCANHYTNPFAYWGQGTLVTVSA
VL: DIVMTQAAFSNPVTLGTSASISCRSSKSLLHYNGITYLYWYLQKPGQSPQLLIYQMSNLASGVPDRFSSSGSGTDFTLRISRVEAEDVGVYYCAQNLELPYTFGGGTKLEIK
B8: anti-TMEM106B antibody TM-3 (antibody, V domains shown)
VH: QVTLKESGPGIVQPSQTLSLTCSFSGFSLNTLGRGVGWIRQPSGKGLEWLAKIWWNDDKFYYPALKSRLTISKDTSKNQIFLKIANVDTADSATYYCARIAGGTGAAYWGQGTTLTVSS
VL: B7 VL with Y32S, Y54S, N58S, S70G, Y91F, Y101W, I111L
B9: anti-TMEM106B antibody TM-5 (antibody, V domains shown)
VH: QVQLQQSGTELARPGASVKVSCKASGYIFTTYGITWVKQRGGQGLEWIGEIYPRSDNTYYNEKFKDKATLTADKSSSTAYMELRSLTSEDSAVYFCARSKGSGTGDYWGQGTTVTVSS
VL: DIQMTQSPASLSASVGETVTITCRASENIYIYLAWYQQKQGKTPQLLVYNGKMLAENVPSRFSGSGSGTQFSLKINSLQPEDFGSYYCQHHYGSPPAFGAGTKLELK

Target: T1, human TMEM106B (human, UniProt Q9NUM4 2-274)
T1 construct: Full-length, on transiently transfected HEK293 cells, or natively expressed on HeLa, U251 and A549 cells; also called huTMEM106B; huTMEM
Experiment: FACS, HEK293 transfectants;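 as to fold over negative controls: hybridoma supernatants incubated 30 min on ice with human TMEM106B-expressing HEK293 cells, binding read as anti-mouse-APC median fluorescence on live cells, relative to secondary-antibody-only wells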;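 as to fold-change over parental HEK293: flow cytometry binding of hybridoma supernatants to HEK293 cells transiently expressing human, cyno or mouse TMEM106B, read as anti-mouse-APC median fluorescence, live cells only, 30 min on ice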
Method: Initial screening of the anti-TMEM106B hybridomas was performed as follows.
For screening of the hybridoma cell culture supernatants, humanTMEM106B-transfected HEK293 cells were aliquoted in 96-well round bottom plates (2x10^5 cells per well) and incubated with 50 µL of hybridoma cell culture supernatant on ice for 30 minutes. […] Cell sorting was performed on a FACS Canto system (BD Biosciences) or iQue (Intellicyt), with sort gates drawn to exclude dead (i.e., propidium iodide-positive) cells. Median fluorescence intensity (MFI) of anti-mouse-APC MFI on TMEM106B+ HEK293 cells was calculated for each clone, and those displaying a signal of at least 2-fold over background compared to a secondary-antibody only well were taken forward for further analysis and characterization.

Row | Binder | fold over negative controls [fold]
1 | B1 | > 2
2 | B2 | > 2
3 | B3 | > 2
4 | B4 | > 2
5 | B5 | > 2
6 | B6 | > 2
7 | B7 | > 2
8 | B8 | > 2
9 | B9 | > 2

Target: T2, cynomolgus (cyno) TMEM106B (cynomolgus, UniProt Q9NUM4 2-274 (human entry))
T2 construct: on transiently transfected HEK293 cells
Experiment: FACS, HEK293 transfectants;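 as to fold over negative controls: hybridoma supernatants incubated 30 min on ice with human TMEM106B-expressing HEK293 cells, binding read as anti-mouse-APC median fluorescence on live cells, relative to secondary-antibody-only wells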;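 as to fold-change over parental HEK293: flow cytometry binding of hybridoma supernatants to HEK293 cells transiently expressing human, cyno or mouse TMEM106B, read as anti-mouse-APC median fluorescence, live cells only, 30 min on ice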

Row | Binder | fold-change over parental HEK293 [fold]
10 | B1 | 12.2
11 | B2 | 18
12 | B3 | 55.5
13 | B4 | 13.5
14 | B5 | 21.4
15 | B6 | 33.7
16 | B7 | 66
17 | B8 | 40.5
18 | B9 | 37

Target: T3, mouse TMEM106B (mouse, UniProt Q80X71 2-275)
T3 construct: on transiently transfected HEK293 cells, or natively expressed on mouse Neuro2a cells; also called moTMEM106B; murine TMEM106B
Experiment: FACS, HEK293 transfectants;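 as to fold over negative controls: hybridoma supernatants incubated 30 min on ice with human TMEM106B-expressing HEK293 cells, binding read as anti-mouse-APC median fluorescence on live cells, relative to secondary-antibody-only wells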;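 as to fold-change over parental HEK293: flow cytometry binding of hybridoma supernatants to HEK293 cells transiently expressing human, cyno or mouse TMEM106B, read as anti-mouse-APC median fluorescence, live cells only, 30 min on ice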

Row | Binder | fold-change over parental HEK293 [fold]
19 | B1 | 4.46
20 | B2 | 6.54
21 | B3 | 52.7
22 | B4 | 3.32
23 | B5 | 2.87
24 | B6 | 22.1
25 | B7 | 44.6
26 | B8 | 29.2
27 | B9 | 26.6

Target: T1, human TMEM106B
Experiment: FACS, HEK293 transfectants;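 as to fold over negative controls: hybridoma supernatants incubated 30 min on ice with human TMEM106B-expressing HEK293 cells, binding read as anti-mouse-APC median fluorescence on live cells, relative to secondary-antibody-only wells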;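 as to fold-change over parental HEK293: flow cytometry binding of hybridoma supernatants to HEK293 cells transiently expressing human, cyno or mouse TMEM106B, read as anti-mouse-APC median fluorescence, live cells only, 30 min on ice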
Remark: another data set of the same source

Row | Binder | fold-change over parental HEK293 [fold]
28 | B1 | 7.09
29 | B2 | 11.8
30 | B3 | 36.7
31 | B4 | 7.62
32 | B5 | 13
33 | B6 | 19.7
34 | B7 | 35.1
35 | B8 | 24.4
36 | B9 | 11.4

Target: T4, GST-fusion human TMEM106B truncated (human)
T4 construct: also called GST-TMEM106B-truncated protein; GST-TMEM106B (truncated)
Experiment: array SPR, Ab immobilised;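 also: antibodies amine-coupled on an MX-96 chip, antigen flowed at 500 nM top concentration in 5-fold serial dilutions, GST alone run as nonspecific-binding control, duplicate measurements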

Row | Binder | Kd | koff | kon
37 | B1 | 12 nM and 26 nM | 0.00045 s⁻¹ and 0.001 s⁻¹ | 36000 M⁻¹ s⁻¹ and 41000 M⁻¹ s⁻¹
38 | B2 | 12 nM and 19 nM | 0.00041 s⁻¹ and 0.00085 s⁻¹ | 34000 M⁻¹ s⁻¹ and 45000 M⁻¹ s⁻¹
39 | B3 | 2.4 nM and 2 nM | 7e-05 s⁻¹ and 8.4e-05 s⁻¹ | 29000 M⁻¹ s⁻¹ and 42000 M⁻¹ s⁻¹
40 | B4 | 16 nM and 18 nM | 0.00048 s⁻¹ and 0.00068 s⁻¹ | 31000 M⁻¹ s⁻¹ and 39000 M⁻¹ s⁻¹
41 | B5 | 1.5 nM and 2.6 nM | 3.3e-05 s⁻¹ and 5.8e-05 s⁻¹ | 22000 M⁻¹ s⁻¹
42 | B6 | 5.3 nM | 7.2e-05 s⁻¹ | 14000 M⁻¹ s⁻¹
43 | B7 | 3.5 nM and 5.2 nM | 6.5e-05 s⁻¹ and 7.8e-05 s⁻¹ | 18000 M⁻¹ s⁻¹ and 15000 M⁻¹ s⁻¹
44 | B8 | 1.7 nM and 2.1 nM | 3.8e-05 s⁻¹ and 4.8e-05 s⁻¹ | 22000 M⁻¹ s⁻¹ and 23000 M⁻¹ s⁻¹
45 | B9 | 1.4 nM and 1.8 nM | 3.3e-05 s⁻¹ and 4.8e-05 s⁻¹ | 23000 M⁻¹ s⁻¹ and 26000 M⁻¹ s⁻¹

Target: T1, human TMEM106B
Experiment: FACS A549, 1 ug/ml

Row | Binder | MFI
46 | B1 | 398
47 | B2 | 380
48 | B3 | 1950
49 | B4 | 431
50 | B5 | 4530
51 | B6 | 2630
52 | B7 | 2480
53 | B8 | 4840
54 | B9 | 1970

Target: T1, human TMEM106B
Experiment: FACS HEK+huTMEM, 0.01 ug/ml

Row | Binder | MFI
55 | B1 | 1100
56 | B2 | 1000
57 | B3 | 2900
58 | B4 | 744
59 | B5 | 4310
60 | B6 | 3340
61 | B7 | 4050
62 | B8 | 7700
63 | B9 | 2180

Target: T1, human TMEM106B
Experiment: FACS U251;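 also: flow cytometry of cells exposed to antibody (purified at 10 µg/mL, or hybridoma supernatant) for 1 h on ice, with propidium iodide-positive dead cells gated out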
Method: All cells were cultured in either T75 or T150 flasks. […] The enzyme was quenched by addition of fresh media, and the cells were then distributed into 96-well plates for FACS analysis.
FACS analysis was performed as follows. Each cell type was aliquoted in 96-well round bottom plates (2x10^5 cells per well), washed once with FACS buffer (PBS + 2% FBS + 1 mM EDTA), and incubated with 50 µL of hybridoma supernatant or purified antibody (10 µg/ml in FACS buffer) on ice for 1 hour. […] Following this secondary incubation, the cells were again washed 2x with ice-cold FACS buffer and resuspended in a final volume of 50 µL of FACS buffer + 0.25 µl/well propidium iodide (Fisher Scientific # BDB556463). Analysis was performed on a FACSCanto system (BD Biosciences) or iQue (Intellicyt), with sort gates drawn to exclude dead (i.e., propidium iodide positive) cells.
Data is presented as mean fluorescence intensity (MFI).

Row | Binder | MFI
64 | B1 | 278
65 | B2 | 300
66 | B3 | 787
67 | B4 | 1320
68 | B5 | 1110
69 | B6 | 998
70 | B7 | 730
71 | B8 | 1080
72 | B9 | 866

Target: T5, GST (Pierce) (UniProt P08515 1-218 = GST, limits assumed)
T5 construct: control for the GST part of the fusion protein; also called GST protein; Glutathione-S-transferase
Experiment: ELISA, coated GST;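 also: ELISA on plates coated with GST alone at 1-10 µg/ml, antibodies applied at 100-1000x dilution, bound antibody detected by peroxidase substrate colour after acid stop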

Row | Binder | binding result
73 | B1 | no binding
74 | B2 | no binding
75 | B3 | no binding
76 | B4 | no binding
77 | B5 | no binding
78 | B6 | no binding
79 | B7 | no binding
80 | B8 | no binding
81 | B9 | no binding

Target: T1, human TMEM106B
Experiment: FACS HEK+huTMEM, 0.1 ug/ml;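 also: flow cytometry binding of purified mouse IgG antibodies to HEK293 cells transiently expressing TMEM106B, read as median fluorescence intensity with propidium iodide positive dead cells gated out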
Method: (§1) Purified anti-TMEM106B antibodies were evaluated for their binding affinity to various TMEM106B-expressing cell lines including HEK293 transiently transfected with human/cyno/mouse TMEM106B, as well as HeLa cells and A549 cells. Antibodies tested for this experiment were mouse IgGs purified from hybridoma supernatant. Affinity binding to cells was determined as follows. Briefly, 1x10^5 cells were aliquoted per well in 96-well round bottom plates and incubated with 50 µL of purified anti-TMEM106B antibody at various concentrations (10x dilutions starting at 10 µg/ml) in FACS buffer (PBS + 2% FBS + 1 mM EDTA). […] Sorting was performed on a iQue (Intellicyt), with sort gates drawn to exclude dead (propidium iodide +) cells. Binding data was analyzed using median fluorescent intensity (MFI) and graphed in Prism. Values presented are MFI.

Row | Binder | MFI
82 | B1 | 2410
83 | B2 | 1960
84 | B3 | 19100
85 | B4 | 1700
86 | B5 | 32800
87 | B6 | 19800
88 | B7 | 24400
89 | B8 | 48700
90 | B9 | 10800

Target: T1, human TMEM106B
Experiment: FACS A549

Row | Binder | MFI
91 | B1 | 1090
92 | B2 | 952
93 | B3 | 1260
94 | B4 | 1930
95 | B5 | 1700
96 | B6 | 2000
97 | B7 | 1410
98 | B8 | 1800
99 | B9 | 1170

Target: T1, human TMEM106B
Experiment: FACS HeLa;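 also: flow cytometry of cells incubated with hybridoma supernatant or purified antibody at 10 µg/ml for 1 h on ice, propidium iodide–positive dead cells gated out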

Row | Binder | MFI
100 | B1 | 308
101 | B2 | 384
102 | B3 | 1380
103 | B4 | 2960
104 | B5 | 2560
105 | B6 | 2790
106 | B7 | 1650
107 | B8 | 2690
108 | B9 | 1740

Target: T1, human TMEM106B
Experiment: FACS HEK+huTMEM, 1.0 ug/ml
Method: as §1

Row | Binder | MFI
109 | B1 | 3900
110 | B2 | 3340
111 | B3 | 67100
112 | B4 | 3040
113 | B5 | 64700
114 | B6 | 66400
115 | B7 | 63300
116 | B8 | 89100
117 | B9 | 64500

Target: T1, human TMEM106B
Experiment: FACS HEK+huTMEM, 10 ug/ml;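 also: purified mouse IgG antibodies at 10 µg/ml bound to HEK293 cells transiently expressing human TMEM106B, measured by flow cytometry as median fluorescence intensity of propidium iodide negative live cells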
Method: as §1

Row | Binder | MFI
118 | B1 | 12400
119 | B2 | 3850
120 | B3 | 67500
121 | B4 | 4140
122 | B5 | 60300
123 | B6 | 64800
124 | B7 | 61200
125 | B8 | 82300
126 | B9 | 59300

Target: T1, human TMEM106B
Experiment: FACS A549, 10 ug/ml

Row | Binder | MFI
127 | B1 | 757
128 | B2 | 509
129 | B3 | 3890
130 | B4 | 622
131 | B5 | 7000
132 | B6 | 4350
133 | B7 | 4200
134 | B8 | 7670
135 | B9 | 4800

Target: T3, mouse TMEM106B
Experiment: FACS Neuro2a;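 also: flow cytometry of cells stained with antibody or hybridoma supernatant (purified antibody at 10 µg/ml) for 1 h on ice, propidium iodide–positive dead cells gated out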

Row | Binder | MFI
136 | B1 | 333
137 | B2 | 324
138 | B3 | 927
139 | B4 | 1580
140 | B5 | 354
141 | B6 | 2740
142 | B7 | 1480
143 | B8 | 1980
144 | B9 | 1610

From patent publication US20230303681A1 (published 2023)
